Assay results as given in patent US20240252667A1.

Experiments:
[1] = molecular target: human insulin receptor extracellular domain (HIR ECD) (human) (UniProt P06213); assay: ELISA, HIR ECD plated (HIR receptor assay)
[2] = molecular target: human insulin receptor extracellular domain (HIR ECD) (human) (UniProt P06213); assay: ELISA, HIR ECD plated; against HIR Ab alone
[3] = molecular target: human insulin receptor extracellular domain (HIR ECD) (human) (UniProt P06213); assay: ELISA, HIR ECD plated, biotinylated goat anti-human IgG detection

## GUSB-HIR Ab fusion protein (GUSB fused to the amino terminus of the HIR Ab heavy chain) (from UniProt P08236 23-633) (antibody)
[1]
  EC50: 4.8 nM
[2]
  reduction in receptor binding affinity: 95%

## HIR Ab-GUSB fusion protein (GUSB fused to the carboxyl terminus of the HIR Ab heavy chain) (from UniProt P08236 23-633) (antibody)
[3]
  EC50: 0.81 nM
